Patent US20180057589A1

Experiments:
[1] = target: N-myc-Notch1 on K1-CHO cells; assay: FACS dot plot α-Myc (PE) against α-NRR1 (FITC), K1-CHO myc-N1 cells, +Dox, panel 2 (other quadrants: upper left 17.1, lower left 26.2, lower right 0.077)
[2] = target: hamster Notch2, endogenous on K1-CHO cells (hamster); assay: FACS dot plot α-Myc (PE) against α-NRR1 (FITC), untransfected K1-CHO cells, -Dox, panel 4 (other quadrants: upper left 0.13, upper right 0.041, lower left 99.7)
[3] = target: Notch1 on stably transfected NIH-3T3 cells; assay: cell-based or functional assay
[4] = target: hamster Notch2, endogenous on K1-CHO cells (hamster); assay: FACS dot plot α-Myc (PE) against α-NRR1 (FITC), untransfected K1-CHO cells, +Dox, panel 1 (other quadrants: upper left 0.15, upper right 0.034, lower left 99.7)
[5] = target: human Notch1 NRR protein (human) (UniProt P46531); assay: SPR
Chain of human Notch1 NRR protein (human) (P46531 1446-1733 limits assumed): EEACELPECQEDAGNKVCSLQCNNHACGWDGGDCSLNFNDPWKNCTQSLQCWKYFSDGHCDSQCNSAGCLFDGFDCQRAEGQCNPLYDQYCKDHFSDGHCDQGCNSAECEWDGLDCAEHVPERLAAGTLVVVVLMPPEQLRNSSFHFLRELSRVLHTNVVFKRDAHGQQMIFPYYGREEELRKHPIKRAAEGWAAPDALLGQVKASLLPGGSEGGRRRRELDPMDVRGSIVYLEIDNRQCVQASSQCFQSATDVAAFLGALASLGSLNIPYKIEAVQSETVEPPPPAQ

[6] = target: mouse Notch1 NRR protein (mouse) (UniProt Q01705); assay: SPR
Chain of mouse Notch1 NRR protein (mouse) (Q01705 1446-1723 limits assumed): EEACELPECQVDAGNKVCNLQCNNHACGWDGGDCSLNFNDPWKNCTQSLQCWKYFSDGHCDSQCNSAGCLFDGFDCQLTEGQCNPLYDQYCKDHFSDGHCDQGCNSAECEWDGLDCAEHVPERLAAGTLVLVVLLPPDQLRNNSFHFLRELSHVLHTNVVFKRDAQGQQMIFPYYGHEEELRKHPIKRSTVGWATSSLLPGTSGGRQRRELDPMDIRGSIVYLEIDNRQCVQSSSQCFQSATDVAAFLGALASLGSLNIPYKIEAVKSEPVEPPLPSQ

[7] = target: N-myc-Notch2 on K1-CHO cells; assay: FACS dot plot α-Myc (PE) against α-NRR1 (FITC), K1-CHO myc-N2 cells, +Dox, panel 3 (other quadrants: upper left 58.6, lower left 41.3, lower right 0.026)
[8] = target: N-myc-Notch2 on K1-CHO cells; assay: FACS dot plot α-Myc (PE) against α-NRR1 (FITC), K1-CHO myc-N2 cells, -Dox (leaky expression per the text), panel 6 (other quadrants: upper left 18, lower left 81.8, lower right 0.1)
[9] = target: N-myc-Notch1 on K1-CHO cells; assay: FACS dot plot α-Myc (PE) against α-NRR1 (FITC), K1-CHO myc-N1 cells, -Dox (transgene not induced), panel 5 (other quadrants: upper left 0.72, lower left 99, lower right 0.14)
[10] = target: human Notch1 NRR protein (human) (UniProt P46531); assay: ELISA on captured Flag-tagged NRR protein
[11] = target: mouse Notch1 NRR protein (mouse) (UniProt Q01705); assay: ELISA on captured Flag-tagged NRR protein

- % of cells in the α-Myc-positive / α-NRR1-positive quadrant (upper right) [1]: 56.6%
- % of cells in the α-Myc-negative / α-NRR1-positive quadrant (lower right) [2]: 0.12%
- Notch reporter (luciferase) in Jag1 co-culture assay: antibody concentration for complete inhibition of Notch1 signaling [3]: 80 to 400 ng/mL
- % of cells in the α-Myc-negative / α-NRR1-positive quadrant (lower right) [4]: 0.082%
- Kd [5]: 3 nM
- Kd [6]: 3 nM
- % of cells in the α-Myc-positive / α-NRR1-positive quadrant (upper right) [7]: 0.064%
- % of cells in the α-Myc-positive / α-NRR1-positive quadrant (upper right) [8]: 0.13%
- % of cells in the α-Myc-positive / α-NRR1-positive quadrant (upper right) [9]: 0.097%
- EC50 [10]: 0.1 µg/mL
- EC50 [11]: 0.1 µg/mL
Substance: anti-NRR1 (antibody)
